Source: the supplement of paper PMC10065799, “High-throughput profiling of sequence recognition by tyrosine kinases and SH2 domains using bacterial peptide display” (eLife, 2023)

Legend:
Jak2 = Jak2 (UniProt O60674); test: phosphorylation enrichment, bacterial display (enrichment ratio); higher = better substrate or ligand; peptides without Tyr show the background
c-Src = test: as above
AncSZ = test: as above
Fyn = Fyn (UniProt P06241); test: as above
Fer (mouse) = test: as above
FGFR1 = FGFR1 (UniProt P11362); test: as above
EPHB2 = EPHB2 (UniProt P29323); test: as above
MERTK = MERTK (UniProt Q12866); test: as above
Chain of MERTK (Q12866 whole entry, looked up): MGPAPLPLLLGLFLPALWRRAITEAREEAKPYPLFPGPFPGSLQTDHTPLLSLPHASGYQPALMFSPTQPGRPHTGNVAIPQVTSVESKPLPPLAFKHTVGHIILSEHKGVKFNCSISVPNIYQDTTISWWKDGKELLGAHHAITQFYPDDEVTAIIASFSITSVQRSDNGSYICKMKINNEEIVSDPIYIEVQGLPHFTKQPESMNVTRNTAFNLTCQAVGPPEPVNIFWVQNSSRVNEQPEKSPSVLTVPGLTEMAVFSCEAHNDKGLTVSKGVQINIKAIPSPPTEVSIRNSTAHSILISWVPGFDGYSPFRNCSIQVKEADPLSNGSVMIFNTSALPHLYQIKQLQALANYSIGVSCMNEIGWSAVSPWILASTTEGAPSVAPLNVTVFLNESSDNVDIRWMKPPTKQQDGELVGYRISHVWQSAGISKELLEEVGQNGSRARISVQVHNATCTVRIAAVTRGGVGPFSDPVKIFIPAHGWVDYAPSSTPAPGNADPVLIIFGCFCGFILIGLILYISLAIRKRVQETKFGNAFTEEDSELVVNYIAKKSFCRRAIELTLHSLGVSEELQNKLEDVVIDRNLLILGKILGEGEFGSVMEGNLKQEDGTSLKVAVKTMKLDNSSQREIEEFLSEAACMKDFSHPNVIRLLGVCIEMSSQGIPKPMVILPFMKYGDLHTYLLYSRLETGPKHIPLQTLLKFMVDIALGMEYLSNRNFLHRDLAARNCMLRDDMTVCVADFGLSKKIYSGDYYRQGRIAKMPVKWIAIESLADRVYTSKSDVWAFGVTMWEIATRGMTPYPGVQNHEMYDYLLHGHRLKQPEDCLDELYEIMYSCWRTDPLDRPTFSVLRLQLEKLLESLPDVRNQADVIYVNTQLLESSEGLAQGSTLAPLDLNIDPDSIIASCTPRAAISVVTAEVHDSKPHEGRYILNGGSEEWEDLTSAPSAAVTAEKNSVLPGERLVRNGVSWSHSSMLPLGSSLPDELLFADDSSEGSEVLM

c-Abl (mouse) = test: as above
EPHB1 = EPHB1 (UniProt P54762); test: as above
Hck = Hck (UniProt P08631); test: as above
Chain of Hck (P08631 whole entry, looked up): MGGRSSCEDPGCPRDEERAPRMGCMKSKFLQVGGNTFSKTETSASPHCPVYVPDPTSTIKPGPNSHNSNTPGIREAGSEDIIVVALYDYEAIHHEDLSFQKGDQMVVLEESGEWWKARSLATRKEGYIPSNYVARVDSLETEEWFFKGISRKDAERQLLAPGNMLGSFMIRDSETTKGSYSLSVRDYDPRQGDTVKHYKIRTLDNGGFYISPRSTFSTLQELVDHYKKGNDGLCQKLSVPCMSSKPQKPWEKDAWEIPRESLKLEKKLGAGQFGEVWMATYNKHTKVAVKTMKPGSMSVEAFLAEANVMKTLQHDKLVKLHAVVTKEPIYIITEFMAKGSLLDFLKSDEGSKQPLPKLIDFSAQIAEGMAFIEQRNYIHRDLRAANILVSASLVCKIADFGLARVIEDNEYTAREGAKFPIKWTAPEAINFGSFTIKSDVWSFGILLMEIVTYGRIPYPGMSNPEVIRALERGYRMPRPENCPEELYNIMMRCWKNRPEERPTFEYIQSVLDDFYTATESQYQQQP

FGFR3 = FGFR3 (UniProt P22607); test: as above
Chain of FGFR3 (P22607 whole entry, looked up): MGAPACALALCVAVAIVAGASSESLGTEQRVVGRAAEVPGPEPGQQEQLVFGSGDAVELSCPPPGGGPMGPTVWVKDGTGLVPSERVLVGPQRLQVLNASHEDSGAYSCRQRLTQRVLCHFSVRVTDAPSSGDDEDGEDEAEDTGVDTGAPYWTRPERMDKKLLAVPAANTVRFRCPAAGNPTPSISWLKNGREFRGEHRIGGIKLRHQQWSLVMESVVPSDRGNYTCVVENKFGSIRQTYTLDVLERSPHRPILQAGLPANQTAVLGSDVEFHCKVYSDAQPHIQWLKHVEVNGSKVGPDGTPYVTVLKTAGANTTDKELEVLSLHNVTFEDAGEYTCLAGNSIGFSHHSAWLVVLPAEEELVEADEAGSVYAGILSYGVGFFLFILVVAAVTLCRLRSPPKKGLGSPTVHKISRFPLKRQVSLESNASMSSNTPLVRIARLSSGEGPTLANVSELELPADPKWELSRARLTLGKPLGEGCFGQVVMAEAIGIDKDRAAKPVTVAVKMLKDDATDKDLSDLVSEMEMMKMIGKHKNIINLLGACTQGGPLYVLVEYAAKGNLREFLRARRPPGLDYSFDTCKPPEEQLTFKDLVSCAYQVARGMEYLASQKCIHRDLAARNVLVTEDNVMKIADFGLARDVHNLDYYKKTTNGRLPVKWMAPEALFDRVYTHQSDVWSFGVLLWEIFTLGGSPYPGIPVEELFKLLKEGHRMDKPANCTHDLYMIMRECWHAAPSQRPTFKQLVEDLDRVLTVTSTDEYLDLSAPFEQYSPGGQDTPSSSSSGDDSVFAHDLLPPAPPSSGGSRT

Fes = Fes (UniProt P07332); test: as above
Chain of Fes (P07332 whole entry, looked up): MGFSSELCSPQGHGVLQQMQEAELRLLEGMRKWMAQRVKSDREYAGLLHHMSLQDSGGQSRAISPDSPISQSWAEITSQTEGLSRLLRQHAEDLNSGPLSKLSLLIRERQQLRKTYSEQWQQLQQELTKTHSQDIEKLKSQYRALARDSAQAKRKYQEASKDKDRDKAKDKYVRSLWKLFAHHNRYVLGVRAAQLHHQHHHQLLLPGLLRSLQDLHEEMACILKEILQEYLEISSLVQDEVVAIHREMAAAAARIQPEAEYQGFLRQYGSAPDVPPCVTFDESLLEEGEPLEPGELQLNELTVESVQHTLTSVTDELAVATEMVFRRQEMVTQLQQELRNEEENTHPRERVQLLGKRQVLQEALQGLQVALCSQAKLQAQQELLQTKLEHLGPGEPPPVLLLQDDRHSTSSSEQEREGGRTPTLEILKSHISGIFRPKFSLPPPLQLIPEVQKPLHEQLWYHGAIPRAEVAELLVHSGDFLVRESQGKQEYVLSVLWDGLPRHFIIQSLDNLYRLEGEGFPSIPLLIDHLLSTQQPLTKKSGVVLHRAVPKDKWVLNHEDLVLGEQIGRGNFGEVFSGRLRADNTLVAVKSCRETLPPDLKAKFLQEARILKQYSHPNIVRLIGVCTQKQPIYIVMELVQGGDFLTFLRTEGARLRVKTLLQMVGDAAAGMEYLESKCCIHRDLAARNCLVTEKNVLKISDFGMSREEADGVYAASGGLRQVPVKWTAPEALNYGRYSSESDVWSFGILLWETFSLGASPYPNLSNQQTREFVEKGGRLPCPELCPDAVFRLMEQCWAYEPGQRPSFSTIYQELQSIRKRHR

SHP2-C SH2 = test: SH2 binding enrichment of the phosphorylated peptide, bacterial display (enrichment ratio); higher = better substrate or ligand; peptides without Tyr show the background
Grb2 SH2 = Grb2 SH2 (UniProt P62993); test: as above
c-Src SH2 = test: as above
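For SH2 binding enrichment of the phosphorylated peptide, bacterial display in this document: peptide library displayed on the E. coli surface as eCPX fusions, selected cells deep-sequenced, score is each peptide's frequency after selection divided by its frequency in the input.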
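For phosphorylation enrichment, bacterial display in this document: 11-residue human phosphosite peptides and single-mutation variants displayed on the E. coli surface, counted by deep sequencing, each peptide's frequency after selection divided by its frequency in the unselected input library; frequency after pTyr selection over input frequency; kinase dosed for 20-30% of maximal phosphorylation in three min.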

Chain of Fyn (P06241 whole entry, looked up): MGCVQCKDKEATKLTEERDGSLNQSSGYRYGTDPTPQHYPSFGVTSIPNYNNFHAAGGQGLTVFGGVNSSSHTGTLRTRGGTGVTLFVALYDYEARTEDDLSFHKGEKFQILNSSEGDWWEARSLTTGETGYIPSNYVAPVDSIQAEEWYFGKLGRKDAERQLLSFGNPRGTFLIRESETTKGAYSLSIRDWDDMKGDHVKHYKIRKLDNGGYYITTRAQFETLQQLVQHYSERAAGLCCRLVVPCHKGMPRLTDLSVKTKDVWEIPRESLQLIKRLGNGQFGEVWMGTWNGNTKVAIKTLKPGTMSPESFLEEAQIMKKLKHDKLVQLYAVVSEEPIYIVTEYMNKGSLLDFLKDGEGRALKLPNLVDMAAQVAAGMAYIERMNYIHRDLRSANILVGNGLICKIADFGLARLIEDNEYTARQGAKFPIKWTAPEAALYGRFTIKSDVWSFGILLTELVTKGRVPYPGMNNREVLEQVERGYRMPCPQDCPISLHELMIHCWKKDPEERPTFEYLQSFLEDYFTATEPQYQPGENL
Chain of Jak2 (O60674 whole entry, looked up): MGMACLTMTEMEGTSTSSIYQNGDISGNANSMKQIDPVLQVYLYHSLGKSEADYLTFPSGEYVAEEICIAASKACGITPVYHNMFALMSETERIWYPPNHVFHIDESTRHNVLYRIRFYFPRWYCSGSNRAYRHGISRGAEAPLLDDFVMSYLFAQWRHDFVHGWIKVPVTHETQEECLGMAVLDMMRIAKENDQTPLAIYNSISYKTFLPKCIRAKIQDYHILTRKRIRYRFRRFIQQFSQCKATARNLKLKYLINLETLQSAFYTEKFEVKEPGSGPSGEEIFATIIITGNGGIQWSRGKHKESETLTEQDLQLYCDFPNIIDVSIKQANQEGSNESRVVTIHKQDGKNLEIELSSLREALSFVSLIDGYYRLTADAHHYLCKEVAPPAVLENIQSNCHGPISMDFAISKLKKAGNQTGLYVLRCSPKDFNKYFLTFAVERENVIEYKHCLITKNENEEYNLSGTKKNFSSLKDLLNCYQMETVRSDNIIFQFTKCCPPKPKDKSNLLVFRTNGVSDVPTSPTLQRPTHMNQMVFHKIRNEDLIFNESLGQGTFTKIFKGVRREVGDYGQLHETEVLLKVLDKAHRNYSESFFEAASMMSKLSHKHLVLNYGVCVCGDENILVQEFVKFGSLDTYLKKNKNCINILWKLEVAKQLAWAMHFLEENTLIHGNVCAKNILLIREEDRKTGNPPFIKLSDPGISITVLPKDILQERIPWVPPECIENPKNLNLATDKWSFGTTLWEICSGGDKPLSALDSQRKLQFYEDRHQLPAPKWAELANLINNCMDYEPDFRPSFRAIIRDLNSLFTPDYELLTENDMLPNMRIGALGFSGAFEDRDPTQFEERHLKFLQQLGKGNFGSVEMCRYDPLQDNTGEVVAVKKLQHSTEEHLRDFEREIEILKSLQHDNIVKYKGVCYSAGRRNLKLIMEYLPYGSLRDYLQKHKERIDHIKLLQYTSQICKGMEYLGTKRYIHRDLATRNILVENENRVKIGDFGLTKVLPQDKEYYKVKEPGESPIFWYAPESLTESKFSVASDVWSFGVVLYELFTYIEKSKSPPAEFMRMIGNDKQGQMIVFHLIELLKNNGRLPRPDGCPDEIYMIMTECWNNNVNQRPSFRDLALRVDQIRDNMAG

Sequence | SH2 binding enrichment (SHP2-C SH2) | SH2 binding enrichment (Grb2 SH2) | SH2 binding enrichment (c-Src SH2) | phosphorylation enrichment (Jak2) | phosphorylation enrichment (c-Src) | phosphorylation enrichment (AncSZ) | phosphorylation enrichment (Fyn) | phosphorylation enrichment (Fer (mouse)) | phosphorylation enrichment (FGFR1) | phosphorylation enrichment (EPHB2) | phosphorylation enrichment (MERTK) | phosphorylation enrichment (c-Abl (mouse)) | phosphorylation enrichment (EPHB1) | phosphorylation enrichment (Hck) | phosphorylation enrichment (FGFR3) | phosphorylation enrichment (Fes)
IIEDPYFGNDS [ACP1_Y132_YF] | 0.584 | 0.946 | 0.541 | 1.45 | 1.74 | 1.59 | 0.867 | 0.711 | 0.695 | 0.62 | 0.651 | 1.04 | 0.804 | 0.96 | 1.1 | 1.62
IKAGAYDFPSL [CAMK2A_Y230_P235L] | 0.626 | 0.774 | 4.76 | 0.603 | 0.388 | 0.761 | 0.877 | 1.03 | 0.41 | 0.493 | 5.66 | 0.541 | 0.418 | 0.382 | 0.484 | 0.647
ILNANCMAKRL [GLDC_Y839_Y839C] | 0.727 | 0.802 | 0.534 | 0.611 | 0.378 | 0.612 | 0.351 | 0.342 | 0.477 | 0.439 | 0.42 | 0.498 | 0.306 | 0.391 | 0.403 | 0.628
ILTYKYLQIPM [KIT_Y547_K550I] | 3.97 | 0.893 | 0.929 | 0.817 | 0.396 | 1.11 | 0.422 | 0.389 | 0.785 | 0.631 | 0.406 | 0.706 | 0.7 | 0.483 | 0.807 | 0.997
INASGYRVGPA [ACSM1_Y477_I479V] | 0.691 | 0.853 | 0.358 | 0.523 | 0.51 | 0.652 | 0.411 | 0.563 | 0.595 | 0.485 | 0.49 | 0.615 | 0.564 | 0.643 | 0.629 | 0.901
INITIYGKTFC [EFHC1_Y177_R182C] | 0.737 | 0.881 | 0.538 | 1.38 | 0.597 | 1.22 | 0.532 | 0.617 | 0.581 | 0.684 | 0.548 | 0.982 | 0.656 | 0.505 | 0.909 | 1.48
IPPRRYFCSGV [STAMBP_Y36_R38C] | 0.621 | 0.691 | 0.416 | 0.667 | 0.393 | 0.642 | 0.478 | 0.403 | 0.428 | 0.466 | 0.432 | 0.593 | 0.342 | 0.464 | 0.447 | 0.739
IRTDAYVWAMT [RPE65_Y89_R91W] | 0.698 | 0.835 | 0.62 | 0.904 | 0.372 | 1.07 | 0.446 | 0.554 | 0.613 | 0.6 | 0.413 | 0.724 | 0.573 | 0.517 | 0.75 | 1.11

Now from value to sequence, other results behind:

SH2 binding enrichment (SHP2-C SH2) | SH2 binding enrichment (Grb2 SH2) | SH2 binding enrichment (c-Src SH2) | Sequence | phosphorylation enrichment (Jak2) | phosphorylation enrichment (c-Src) | phosphorylation enrichment (AncSZ) | phosphorylation enrichment (Fyn) | phosphorylation enrichment (Fer (mouse)) | phosphorylation enrichment (FGFR1) | phosphorylation enrichment (EPHB2) | phosphorylation enrichment (MERTK) | phosphorylation enrichment (c-Abl (mouse)) | phosphorylation enrichment (EPHB1) | phosphorylation enrichment (Hck) | phosphorylation enrichment (FGFR3) | phosphorylation enrichment (Fes)
0.651 | 0.852 | 0.472 | IIGNGYYFRVF [MYBPC3_Y1135] | 1.46 | 0.335 | 1.08 | 0.327 | 0.413 | 0.374 | 0.619 | 0.318 | 0.775 | 0.628 | 0.373 | 0.79 | 1.16
0.832 | 0.879 | 0.52 | IKELTYQTEED [MYH7_Y1852] | 1.1 | 0.467 | 1.27 | 0.579 | 0.635 | 0.54 | 0.612 | 0.441 | 0.753 | 0.591 | 0.604 | 0.773 | 1.33
1.5 | 1.82 | 1.04 | IKIMGYFIRTI [IDS_Y490_S491F] | 0.93 | 0.424 | 0.932 | 0.402 | 0.547 | 0.479 | 0.561 | 0.514 | 0.813 | 0.432 | 0.497 | 0.785 | 1.08
0.474 | 0.659 | 0.449 | ILTFKYLQKPM [KIT_Y547_YF] | 1.42 | 0.605 | 1.19 | 0.579 | 0.562 | 0.485 | 0.759 | 0.548 | 1.07 | 0.792 | 0.543 | 0.742 | 1.29
0.857 | 1.21 | 0.659 | IMITDYLPLFR [INSR_Y87_L89P] | 2.85 | 0.577 | 1.09 | 0.473 | 0.376 | 0.737 | 0.651 | 0.427 | 0.732 | 0.641 | 0.755 | 0.729 | 0.985
1.04 | 0.783 | 2.57 | IQRSLYDCPAS [PDGFRA_Y762_R764C] | 0.825 | 0.81 | 1.38 | 0.732 | 4.18 | 0.592 | 2.5 | 3.85 | 1.47 | 2.37 | 2.25 | 0.706 | 0.973
1.01 | 0.685 | 0.532 | IRDENYGEGSS [ACO2_Y665_G661R] | 0.733 | 0.481 | 0.917 | 0.421 | 0.588 | 0.437 | 0.422 | 0.46 | 0.639 | 0.364 | 0.925 | 0.559 | 0.936
0.687 | 0.692 | 0.419 | ISDNACQFMLT [MYH7_Y162_Y162C_YF] | 1.04 | 0.448 | 0.946 | 0.597 | 0.51 | 0.588 | 0.615 | 0.448 | 0.696 | 0.712 | 0.606 | 0.877 | 1.21
